Data published in patent US20190153113A1, “CD39 VASCULAR ISOFORM TARGETING AGENTS” (INNATE PHARMA, priority 2015, published 2019).

T1: CD39 mutant 15 (K87A, E100A, D107A) (human, UniProt P49961 1-510)
T1 construct: Transfected in HEK293T cells
T1 chain: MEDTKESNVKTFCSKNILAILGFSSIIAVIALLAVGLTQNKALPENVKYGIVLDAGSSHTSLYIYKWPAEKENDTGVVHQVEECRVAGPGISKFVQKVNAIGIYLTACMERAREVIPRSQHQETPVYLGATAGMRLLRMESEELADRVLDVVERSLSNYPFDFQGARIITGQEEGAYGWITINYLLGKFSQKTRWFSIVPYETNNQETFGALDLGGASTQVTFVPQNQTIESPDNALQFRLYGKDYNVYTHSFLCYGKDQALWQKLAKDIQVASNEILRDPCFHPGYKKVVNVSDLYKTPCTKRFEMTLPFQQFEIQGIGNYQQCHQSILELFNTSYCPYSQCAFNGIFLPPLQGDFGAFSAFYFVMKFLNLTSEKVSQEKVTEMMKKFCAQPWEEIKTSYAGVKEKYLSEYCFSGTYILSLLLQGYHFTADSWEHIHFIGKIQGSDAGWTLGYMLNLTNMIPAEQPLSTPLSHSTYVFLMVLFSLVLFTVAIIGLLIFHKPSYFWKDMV

T2: human CD39 at cell surface (Homo sapiens, UniProt P49961)
T2 construct: cells that endogenously express CD39 at their surface, e.g. regulatory T (TReg) cells, B cells, cancer cells, lymphoma cells (e.g. Ramos cells); endogenous in cells; host or cells: Ramos human lymphoma cells
T2 sequence (P49961 1-510): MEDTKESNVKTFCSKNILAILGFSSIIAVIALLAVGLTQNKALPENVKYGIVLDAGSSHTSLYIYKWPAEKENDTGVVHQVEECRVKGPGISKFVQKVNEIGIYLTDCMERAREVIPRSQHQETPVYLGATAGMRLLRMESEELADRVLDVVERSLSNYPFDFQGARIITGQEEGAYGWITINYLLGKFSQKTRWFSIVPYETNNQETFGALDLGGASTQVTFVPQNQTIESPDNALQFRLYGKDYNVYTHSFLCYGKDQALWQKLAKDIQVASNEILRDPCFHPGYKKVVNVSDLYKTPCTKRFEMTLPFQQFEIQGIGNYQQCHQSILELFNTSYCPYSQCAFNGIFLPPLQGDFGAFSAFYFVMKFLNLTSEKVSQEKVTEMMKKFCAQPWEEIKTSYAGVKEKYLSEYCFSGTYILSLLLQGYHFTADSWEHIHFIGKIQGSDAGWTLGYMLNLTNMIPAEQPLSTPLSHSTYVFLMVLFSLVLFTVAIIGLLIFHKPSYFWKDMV


Key:
[1] = molecular target: T1, CD39 mutant 15 (K87A, E100A, D107A); assay: flow cytometry, HEK293T cells transfected with mutant 15
[2] = molecular target: T2, human CD39 at cell surface; assay: CD39 down-modulation / internalization on Ramos cells; format: cell-based; conditions: Ramos human lymphoma cells, 10 μg/ml, 4° C. or 37° C.

Row | Molecule | binding result [1] | CD39 down modulation / internalization [2]
1 | Antibody I-391, Fc silent recombinant chimeric human IgG1 with heavy chain N297Q mutation (antibody, V domains shown) VH: QIQLVQSGPELKKPGETVKISCKASGYTFRNYGMNWVKQAPGKGLKWMGWINTYTGEPTYADDFKGRFAFSLATSASTAYLQISNLKNEDTATYFCARKAYYGSNYYFDYWGQGTTLTVSS VL: DIVMTQSHKFMSTSVGDRVSITCKASQDVSTAVAWYQQKPGQSPKLLIYSASYRYTGVPDRFTGSGSGTDFTFTISTVQAEDLAVYYCQQHYTTPPYTFGGGTKLEIKR | binds | 
2 | I-392: anti-CD39 antibody, VH SEQ ID NO: 8 and VL SEQ ID NO: 9, chimeric human IgG1 with N297Q mutation (antibody, V domains shown) VH: QIQLVQSGPEVKKPRETVKISCKASGYTFTHYGMNWVKQAPGKGLKWMGWINTYTGEPTYADDFKGRFAFSLEASASTAYLQINNLKNEDTATYFCARRRYEGNYVFYYFDYWGQGTTLTVSS VL: DIQMTQSPASLSASVGETVTITCRASENIYSYFSWYQQKQGKSPQLLVYTAKTLAEGVPSRFSGSGSGTQFSLKINSLQPEDFGSYYCQHHYVTPYTFGGGTKLEIK |  | do not induce CD39 down modulation nor CD39 internalization
